Results taken from publication PMC2424174 (2008).
Where no end group is shown, it is not given here. Ahx = NCCCCCC(=O)O

Legend:
[1] = biological target: Nucleolin (cell surface, HUVECs) (Homo sapiens, UniProt P19338); assay: iodinated HB-19 cell binding displaced by unlabeled HB-19
[2] = biological target: Nucleolin (cell surface, MDA-MB-231 cells) (Homo sapiens, UniProt P19338); assay: as above
Sequence of Nucleolin (cell surface, MDA-MB-231 cells) (P19338 2-710): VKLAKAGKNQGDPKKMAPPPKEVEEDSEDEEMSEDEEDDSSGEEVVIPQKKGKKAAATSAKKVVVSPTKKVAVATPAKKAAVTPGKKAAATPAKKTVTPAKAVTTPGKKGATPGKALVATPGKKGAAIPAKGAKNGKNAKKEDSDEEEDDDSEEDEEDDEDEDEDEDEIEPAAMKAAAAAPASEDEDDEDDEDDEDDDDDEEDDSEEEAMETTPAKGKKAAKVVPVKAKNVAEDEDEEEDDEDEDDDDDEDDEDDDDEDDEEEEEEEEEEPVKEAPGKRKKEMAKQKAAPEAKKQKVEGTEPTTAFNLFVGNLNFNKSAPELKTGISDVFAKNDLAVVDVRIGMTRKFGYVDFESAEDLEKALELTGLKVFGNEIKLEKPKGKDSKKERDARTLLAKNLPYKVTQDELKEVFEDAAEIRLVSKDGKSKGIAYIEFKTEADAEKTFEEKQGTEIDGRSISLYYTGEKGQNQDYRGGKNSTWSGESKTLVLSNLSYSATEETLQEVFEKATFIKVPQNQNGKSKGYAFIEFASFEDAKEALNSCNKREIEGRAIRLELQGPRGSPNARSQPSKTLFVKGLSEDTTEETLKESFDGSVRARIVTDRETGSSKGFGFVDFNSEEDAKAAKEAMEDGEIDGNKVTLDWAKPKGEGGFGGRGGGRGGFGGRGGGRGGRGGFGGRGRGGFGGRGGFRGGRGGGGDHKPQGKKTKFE

Sequence of Nucleolin (cell surface, HUVECs) (P19338 2-710): as above

B1: HB-19 pseudopeptide (peptide)
chain: KKKGPKEK-{Ahx-NH2}
modifications: also: pentavalent Lys-psi(CH2N)-Pro-Arg on template, attachment places not given here, reduced psi(CH2N) bond Lys-Pro
[1]
  Kd: 825 nM
[2]
  Kd: 312 nM
